Laboratory results published in publication doi:10.1101/2024.06.19.598823 (bioRxiv, 2024).

Target: RBD protein of SARS-like CoV WIV16 (Bat SARS-like coronavirus WIV16)
Experiment: ELISA

B1: nanobody 7F (VHH)
VHH: EVQLVESGGGLVEAGGSLRLSCVASGLTFSDYTMAWFRQVPGQEREFVSHIGWGGSETYYADSVKGRFTISRDNAKNAMYLQMNELKPDDTAVYYCAADRGSSFYYVRESEYTFWGQGTQVTVSS
B1: binds.
